Molecular target: C-terminal (201-243) cytoplasmic domain of the rat FcεRIβ, Gal 4 DNA binding domain fusion protein (pAS2-1-βC) (rat)
Assay: yeast two-hybrid, liquid β-galactosidase assay, strain Y187

Substance | LacZ reporter (β-galactosidase) activity, fold over the negative control pACT-27-66-OOF | strength of the interaction by β-galactosidase activity, relative to p53 and SV40
full length Lyn A, Gal 4-activation domain-kinase fusion protein (from UniProt P04386 768-881) (enzyme) | 3 fold | 1 per cent
full length Lyn B, Gal 4-activation domain-kinase fusion protein (from UniProt P04386 768-881) (enzyme) | 3 fold | 1 per cent

Second part, the substance after the results:

LacZ reporter (β-galactosidase) activity, fold over the negative control pACT-27-66-OOF | strength of the interaction by β-galactosidase activity, relative to p53 and SV40 | Substance
3 fold | 1 per cent | unique domain of Lyn A (amino acids 1-66), Gal 4-activation domain fusion protein (from UniProt Q07014 1-66)
3 fold | 1 per cent | unique domain of Lyn B (amino acids 1-45), Gal 4-activation domain fusion protein (from UniProt Q07014 1-66)

Molecular target: rat FcεRI (α, β and γ subunits) on CHO-B12 cells (UniProt P12371)
Assay: not given

Substance | antigen-induced phosphorylation of receptor tyrosines
full length, catalytically inactive Lyn B kinase (Lys279 to Arg), rat, expressed in CHO-B12 cells | 20-75% less antigen-induced phosphorylation of receptor tyrosines than cells transfected with the vector alone
